Experimental data as given in patent publication US7906477.

Columns and labels:
Abz-GKAFRRLY′ = tested on: T1, Abz-GKAFRRLY′; conditions: for Relative hydrolysis rate: scale: relative
T1 sequence: GKAFRRLY

[1] = tested on: T2, ac-GKAFRR-L12ADT (SEQ ID NO:41); conditions: for Relative hydrolysis rate: scale: relative
T2 sequence: GKAFRRX

GKAFR-AMC = tested on: T3, GKAFR-AMC
T3 sequence: GKAFR

[2] = tested on: T4, Y′GKAFRLK′-PEGA (SEQ ID NO:52)
T4 sequence: XGKAFRLX

[3] = tested on: T5, Y′GKAFRR-Dap-FK′ (SEQ ID NO:38)
T5 sequence: XGKAFRRXFX

[4] = tested on: T6, Y′GKAFRRLGK′ (SEQ ID NO:21)
T6 sequence: XGKAFRRLGX

[5] = tested on: T7, Y′GKAKPR-Dap-FK′ (SEQ ID NO:37)
T7 sequence: XGKAKPRXFX

[6] = tested on: T8, Y′GKAMRQ-Dap-FK′ (SEQ ID NO:39)
T8 sequence: XGKAMRQXFX

[7] = tested on: T9, Y′GKARAF-Dap-FK′ (SEQ ID NO:36)
T9 sequence: XGKARAFXFX

[8] = tested on: T10, Y′GSKGHFHL-Dap-K′ (SEQ ID NO:47)
T10 sequence: XGSKGHFHLXX

[9] = tested on: T11, Y′GSKGHFKL-Dap-F-K′ (SEQ ID NO:40)
T11 sequence: XGSKGHFKLXFX

[10] = tested on: T12, Y′GSKGHFKL-Dap-K′ (SEQ ID NO:45)
T12 sequence: XGSKGHFKLXX

[11] = tested on: T13, Y′GSKGPFKL-Dap-K′ (SEQ ID NO:46)
T13 sequence: XGSKGPFKLXX

[12] = tested on: T14, ac-GKAFRRLG (SEQ ID NO:43)
T14 sequence: GKAFRRLG

[13] = tested on: soluble non-arginine containing peptides

Sequence of Plasmin (P00747 20-580): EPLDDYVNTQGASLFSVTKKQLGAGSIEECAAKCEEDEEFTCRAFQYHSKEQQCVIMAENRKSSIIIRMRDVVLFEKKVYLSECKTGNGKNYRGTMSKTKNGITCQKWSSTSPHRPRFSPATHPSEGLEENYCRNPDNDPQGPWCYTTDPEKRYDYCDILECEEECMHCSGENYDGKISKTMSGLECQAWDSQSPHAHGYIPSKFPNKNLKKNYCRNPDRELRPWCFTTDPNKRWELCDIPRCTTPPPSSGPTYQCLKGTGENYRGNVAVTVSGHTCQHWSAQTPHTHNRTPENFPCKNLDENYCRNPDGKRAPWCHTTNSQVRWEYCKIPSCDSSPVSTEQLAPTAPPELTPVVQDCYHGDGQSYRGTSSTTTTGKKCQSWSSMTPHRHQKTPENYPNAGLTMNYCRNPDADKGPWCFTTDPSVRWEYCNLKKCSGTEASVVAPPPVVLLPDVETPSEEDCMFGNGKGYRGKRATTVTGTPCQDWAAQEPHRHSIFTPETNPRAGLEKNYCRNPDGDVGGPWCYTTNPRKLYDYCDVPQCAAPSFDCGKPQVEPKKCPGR
Sequence of Plasmin (P00747 581-810): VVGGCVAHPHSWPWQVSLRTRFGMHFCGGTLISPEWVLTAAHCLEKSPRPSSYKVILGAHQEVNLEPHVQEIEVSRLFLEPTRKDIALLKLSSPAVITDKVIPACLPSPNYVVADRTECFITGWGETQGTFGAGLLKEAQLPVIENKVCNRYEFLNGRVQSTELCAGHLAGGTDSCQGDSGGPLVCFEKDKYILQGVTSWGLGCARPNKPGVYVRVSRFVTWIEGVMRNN

Cathepsin B was tested, and the hydrolysis by protease (Abz-GKAFRRLY′) was “No appreciable hydrolysis of either substrate was observed following incubation with Cathepsin D or Cathepsin B”, the Relative hydrolysis rate (Abz-GKAFRRLY′) was 1 and the hydrolysis by protease [1] was “No appreciable hydrolysis of either substrate was observed following incubation with Cathepsin D or Cathepsin B”. It also gave a Relative hydrolysis rate [1] of 1.

In the case of Cathepsin D, the hydrolysis by protease (Abz-GKAFRRLY′) is reported as “No appreciable hydrolysis of either substrate was observed following incubation with Cathepsin D or Cathepsin B”, the Relative hydrolysis rate (Abz-GKAFRRLY′) is reported as 1 and the hydrolysis by protease [1] is reported as “No appreciable hydrolysis of either substrate was observed following incubation with Cathepsin D or Cathepsin B”. The Relative hydrolysis rate [1] was 1.

For Plasmin, the “rate of hydrolysis relative to hK2” value (Abz-GKAFRRLY′) was “Plasmin had a more than 10-fold slower rate of hydrolysis of the peptide substrate than hK2” and the Relative hydrolysis rate (Abz-GKAFRRLY′) was 36.

Urokinase was tested, and the hydrolysis by protease (Abz-GKAFRRLY′) was “Urokinase showed low activity on the fluorescence quenched peptide substrate”, the Relative hydrolysis rate (Abz-GKAFRRLY′) was 17 and the Relative hydrolysis rate [1] was 1.

In the case of “human glandular kallikrein 2 (hK2), enzymatically active”, the Relative hydrolysis rate (Abz-GKAFRRLY′) is reported as 353, the Km (GKAFR-AMC) is reported as “Km 146 µM” and the kcat (GKAFR-AMC) is reported as “kcat 0.13 sec^-1”. The kcat/Km (GKAFR-AMC) was “kcat/Km 895 sec^-1 M^-1”, the “incubation time until fluorescent beads (on-bead digestion, 4 µg/ml hK2)” value [2] was “digested to yield fluorescent beads after 10-12 hours of incubation with 4 µg/ml hK2” and the “Michaelis-Menten constant (Km)” value [3] was “The Michaelis-Menten constant (Km) was determined at 26.5 µM”. For the same substance, the “hK2 mediated hydrolysis (fluorescence, 250 µM substrate, 8 µg/ml hK2)” value [3] was “by far exceeded all other substrates”, the kcat [3] was “the kcat at 1.09 sec^-1” and the kcat/Km ratio [3] was “the kcat/Km ratio was 41,132 sec^-1 M^-1”. For the same substance, the “on-bead digestion with hK2 (fluorescence)” value (shortened to “on-bead digestion with hK2”) [3] was “reproduced fluorescence when these peptides were digested on-bead with hK2”, the “time to maximum digestion (70-75%)” value [3] was “a value that was reached with Y′GKAFRR-Dap-F-K′ (SEQ ID NO:38) in less than 15 minutes” and the “time to more than 50% digestion (500 µM peptide, 4 µg/ml hK2)” value [3] was “In less than five minutes, more than 50% of the peptide was digested”. For the same substance, the “hK2 hydrolysis rate (fluorescence)” value [4] was “Substitution of Dap-F with Leu-Gly resulted in only a modest decrease in hydrolysis rate”, the “on-bead digestion with hK2” value [5] was “reproduced fluorescence when these peptides were digested on-bead with hK2” and the “time to digestion of the same amount (more than 50%) of peptide” value (from here on “time … (more than 50%) of peptide”) [5] was “For the other peptides, digestion of the same amount of peptide took 19-29 minutes”. For the same substance, the “on-bead digestion with hK2” value [6] was “reproduced fluorescence when these peptides were digested on-bead with hK2”, the “time … (more than 50%) of peptide” value [6] was “For the other peptides, digestion of the same amount of peptide took 19-29 minutes” and the “on-bead digestion with hK2” value [7] was “reproduced fluorescence when these peptides were digested on-bead with hK2”. For the same substance, the “time … (more than 50%) of peptide” value [7] was “For the other peptides, digestion of the same amount of peptide took 19-29 minutes”, the “digestion by hK2 in solution (fluorescence-quenched peptide)” value (from here on “digestion by hK2 in solution”) [8] was “none of these three arginine free peptides were digested by hK2, even after prolonged incubation” and the “hK2 mediated hydrolysis (fluorescence, 250 µM substrate, 8 µg/ml hK2)” value [9] was “did not show any hydrolysis”. The “digestion by hK2 in solution” value [10] was “none of these three arginine free peptides were digested by hK2, even after prolonged incubation”, the “digestion by hK2 in solution” value [11] was “none of these three arginine free peptides were digested by hK2, even after prolonged incubation” and the “hydrolysis by hK2 (4 µg/ml), HPLC” value [1] was “the hK2 prodrug is rapidly cleaved by hK2”. For the same substance, the “percent of starting prodrug hydrolyzed after 1 hour (4 µg/ml hK2, HPLC)” value [1] was “after 1 hour, more than 80% of the starting prodrug was hydrolyzed”, the “time to 50% hydrolysis (4 µg/ml hK2, HPLC)” value [1] was “In 25 min, 50% was hydrolyzed” and the Relative hydrolysis rate [1] was 125. For the same substance, the “hydrolysis by hK2 (HPLC)” value [12] was “this peptide was rapidly hydrolyzed by hK2” and the “hydrolysis by hK2 in solution” value [13] was “the soluble non-arginine containing peptides were not hydrolyzed by hK2”.
